Measurements as given in patent publication US20180155451A1 (published 2018).

biological target: T1, FcγRIa extracellular domain with C-terminal His tag (human, UniProt P12314 16-292); experiment: SPR (Biacore), captured antibody, FcγRIa analyte; relative to GpH7-A5/GpH7-B3/GpL16-k0 = 100
T1 construct: extracellular domain; Expressed in FreeStyle293 cells; used as analyte in Biacore; also called FcgRI; 1a; not shown: His tag at the C terminus
T1 sequence (P12314 16-292): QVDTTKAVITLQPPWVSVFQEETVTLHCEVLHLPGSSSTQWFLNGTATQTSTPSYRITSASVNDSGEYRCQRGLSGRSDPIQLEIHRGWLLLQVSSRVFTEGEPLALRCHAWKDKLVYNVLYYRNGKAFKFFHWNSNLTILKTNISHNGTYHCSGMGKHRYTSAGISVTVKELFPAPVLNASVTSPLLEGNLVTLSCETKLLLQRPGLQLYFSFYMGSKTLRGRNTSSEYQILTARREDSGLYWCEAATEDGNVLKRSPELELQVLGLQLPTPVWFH

| He/Con_1a | Binder |
| --- | --- |
| 110 % of control | GpH7-A5/GpH7-B3 variant (H268_09D)/GpL16-k0 (antibody, human IgG1, kappa, Heterodimerized; only the B3 chain altered; also called He Ab H268_09D) heavy 1: not shown heavy 2: not shown light: DIVMTQSPLSLPVTPGEPASISCQASESLVHSNRNTYLHWYLQKPGQSPQLLIYKVSNRFSGVPDRFSGSGSGTDFTLKISRVEAEDVGVYYCSQNTHVPPTFGQGTKVEIERTVAAPSVFIFPPSDEQLKSGTASVVCLLNNFYPREAKVQWKVDNALQSGNSQESVTEQDSKDSTYSLSSTLTLSKADYEKHKVYACEVTHQGLSSPVTKSFNRGEC |
| 104 % of control | GpH7-A5/GpH7-B3 variant (S337_15Y)/GpL16-k0 (antibody, human IgG1, kappa, Heterodimerized; only the B3 chain altered; also called He Ab S337_15Y) heavy 1: not shown heavy 2: not shown light: DIVMTQSPLSLPVTPGEPASISCQASESLVHSNRNTYLHWYLQKPGQSPQLLIYKVSNRFSGVPDRFSGSGSGTDFTLKISRVEAEDVGVYYCSQNTHVPPTFGQGTKVEIERTVAAPSVFIFPPSDEQLKSGTASVVCLLNNFYPREAKVQWKVDNALQSGNSQESVTEQDSKDSTYSLSSTLTLSKADYEKHKVYACEVTHQGLSSPVTKSFNRGEC |
| 106 % of control | GpH7-A5/GpH7-B3 variant (T335_05P)/GpL16-k0 (antibody, human IgG1, kappa, Heterodimerized; only the B3 chain altered; also called He Ab T335_05P) heavy 1: not shown heavy 2: not shown light: DIVMTQSPLSLPVTPGEPASISCQASESLVHSNRNTYLHWYLQKPGQSPQLLIYKVSNRFSGVPDRFSGSGSGTDFTLKISRVEAEDVGVYYCSQNTHVPPTFGQGTKVEIERTVAAPSVFIFPPSDEQLKSGTASVVCLLNNFYPREAKVQWKVDNALQSGNSQESVTEQDSKDSTYSLSSTLTLSKADYEKHKVYACEVTHQGLSSPVTKSFNRGEC |
| 108 % of control | GpH7-A5/GpH7-B3 variant (H268_18N)/GpL16-k0 (antibody, human IgG1, kappa, Heterodimerized; only the B3 chain altered; also called He Ab H268_18N) heavy 1: not shown heavy 2: not shown light: DIVMTQSPLSLPVTPGEPASISCQASESLVHSNRNTYLHWYLQKPGQSPQLLIYKVSNRFSGVPDRFSGSGSGTDFTLKISRVEAEDVGVYYCSQNTHVPPTFGQGTKVEIERTVAAPSVFIFPPSDEQLKSGTASVVCLLNNFYPREAKVQWKVDNALQSGNSQESVTEQDSKDSTYSLSSTLTLSKADYEKHKVYACEVTHQGLSSPVTKSFNRGEC |
| 107 % of control | GpH7-A5/GpH7-B3 variant (S337_06M)/GpL16-k0 (antibody, human IgG1, kappa, Heterodimerized; only the B3 chain altered; also called He Ab S337_06M) heavy 1: not shown heavy 2: not shown light: DIVMTQSPLSLPVTPGEPASISCQASESLVHSNRNTYLHWYLQKPGQSPQLLIYKVSNRFSGVPDRFSGSGSGTDFTLKISRVEAEDVGVYYCSQNTHVPPTFGQGTKVEIERTVAAPSVFIFPPSDEQLKSGTASVVCLLNNFYPREAKVQWKVDNALQSGNSQESVTEQDSKDSTYSLSSTLTLSKADYEKHKVYACEVTHQGLSSPVTKSFNRGEC |
| 105 % of control | GpH7-A5/GpH7-B3 variant (S337_20W)/GpL16-k0 (antibody, human IgG1, kappa, Heterodimerized; only the B3 chain altered; also called He Ab S337_20W) heavy 1: not shown heavy 2: not shown light: DIVMTQSPLSLPVTPGEPASISCQASESLVHSNRNTYLHWYLQKPGQSPQLLIYKVSNRFSGVPDRFSGSGSGTDFTLKISRVEAEDVGVYYCSQNTHVPPTFGQGTKVEIERTVAAPSVFIFPPSDEQLKSGTASVVCLLNNFYPREAKVQWKVDNALQSGNSQESVTEQDSKDSTYSLSSTLTLSKADYEKHKVYACEVTHQGLSSPVTKSFNRGEC |
| 107 % of control | GpH7-A5/GpH7-B3 variant (T335_06M)/GpL16-k0 (antibody, human IgG1, kappa, Heterodimerized; only the B3 chain altered; also called He Ab T335_06M) heavy 1: not shown heavy 2: not shown light: DIVMTQSPLSLPVTPGEPASISCQASESLVHSNRNTYLHWYLQKPGQSPQLLIYKVSNRFSGVPDRFSGSGSGTDFTLKISRVEAEDVGVYYCSQNTHVPPTFGQGTKVEIERTVAAPSVFIFPPSDEQLKSGTASVVCLLNNFYPREAKVQWKVDNALQSGNSQESVTEQDSKDSTYSLSSTLTLSKADYEKHKVYACEVTHQGLSSPVTKSFNRGEC |
| 109 % of control | GpH7-A5/GpH7-B3 variant (T335_07I)/GpL16-k0 (antibody, human IgG1, kappa, Heterodimerized; only the B3 chain altered; also called He Ab T335_07I) heavy 1: not shown heavy 2: not shown light: DIVMTQSPLSLPVTPGEPASISCQASESLVHSNRNTYLHWYLQKPGQSPQLLIYKVSNRFSGVPDRFSGSGSGTDFTLKISRVEAEDVGVYYCSQNTHVPPTFGQGTKVEIERTVAAPSVFIFPPSDEQLKSGTASVVCLLNNFYPREAKVQWKVDNALQSGNSQESVTEQDSKDSTYSLSSTLTLSKADYEKHKVYACEVTHQGLSSPVTKSFNRGEC |
| 104 % of control | GpH7-A5/GpH7-B3 variant (I336_14T)/GpL16-k0 (antibody, human IgG1, kappa, Heterodimerized; only the B3 chain altered; also called He Ab I336_14T) heavy 1: not shown heavy 2: not shown light: DIVMTQSPLSLPVTPGEPASISCQASESLVHSNRNTYLHWYLQKPGQSPQLLIYKVSNRFSGVPDRFSGSGSGTDFTLKISRVEAEDVGVYYCSQNTHVPPTFGQGTKVEIERTVAAPSVFIFPPSDEQLKSGTASVVCLLNNFYPREAKVQWKVDNALQSGNSQESVTEQDSKDSTYSLSSTLTLSKADYEKHKVYACEVTHQGLSSPVTKSFNRGEC |
| 102 % of control | GpH7-A5/GpH7-B3 variant (I336_13S)/GpL16-k0 (antibody, human IgG1, kappa, Heterodimerized; only the B3 chain altered; also called He Ab I336_13S) heavy 1: not shown heavy 2: not shown light: DIVMTQSPLSLPVTPGEPASISCQASESLVHSNRNTYLHWYLQKPGQSPQLLIYKVSNRFSGVPDRFSGSGSGTDFTLKISRVEAEDVGVYYCSQNTHVPPTFGQGTKVEIERTVAAPSVFIFPPSDEQLKSGTASVVCLLNNFYPREAKVQWKVDNALQSGNSQESVTEQDSKDSTYSLSSTLTLSKADYEKHKVYACEVTHQGLSSPVTKSFNRGEC |
| 111 % of control | GpH7-A5/GpH7-B3 variant (H268_10E)/GpL16-k0 (antibody, human IgG1, kappa, Heterodimerized; only the B3 chain altered; also called He Ab H268_10E) heavy 1: not shown heavy 2: not shown light: DIVMTQSPLSLPVTPGEPASISCQASESLVHSNRNTYLHWYLQKPGQSPQLLIYKVSNRFSGVPDRFSGSGSGTDFTLKISRVEAEDVGVYYCSQNTHVPPTFGQGTKVEIERTVAAPSVFIFPPSDEQLKSGTASVVCLLNNFYPREAKVQWKVDNALQSGNSQESVTEQDSKDSTYSLSSTLTLSKADYEKHKVYACEVTHQGLSSPVTKSFNRGEC |
